Target: recombinant Dnmt1 protein (Dnmt1^R), not treated with a kinase (human) (UniProt P26358)
Sequence of UniProt P26358 (P26358 whole entry): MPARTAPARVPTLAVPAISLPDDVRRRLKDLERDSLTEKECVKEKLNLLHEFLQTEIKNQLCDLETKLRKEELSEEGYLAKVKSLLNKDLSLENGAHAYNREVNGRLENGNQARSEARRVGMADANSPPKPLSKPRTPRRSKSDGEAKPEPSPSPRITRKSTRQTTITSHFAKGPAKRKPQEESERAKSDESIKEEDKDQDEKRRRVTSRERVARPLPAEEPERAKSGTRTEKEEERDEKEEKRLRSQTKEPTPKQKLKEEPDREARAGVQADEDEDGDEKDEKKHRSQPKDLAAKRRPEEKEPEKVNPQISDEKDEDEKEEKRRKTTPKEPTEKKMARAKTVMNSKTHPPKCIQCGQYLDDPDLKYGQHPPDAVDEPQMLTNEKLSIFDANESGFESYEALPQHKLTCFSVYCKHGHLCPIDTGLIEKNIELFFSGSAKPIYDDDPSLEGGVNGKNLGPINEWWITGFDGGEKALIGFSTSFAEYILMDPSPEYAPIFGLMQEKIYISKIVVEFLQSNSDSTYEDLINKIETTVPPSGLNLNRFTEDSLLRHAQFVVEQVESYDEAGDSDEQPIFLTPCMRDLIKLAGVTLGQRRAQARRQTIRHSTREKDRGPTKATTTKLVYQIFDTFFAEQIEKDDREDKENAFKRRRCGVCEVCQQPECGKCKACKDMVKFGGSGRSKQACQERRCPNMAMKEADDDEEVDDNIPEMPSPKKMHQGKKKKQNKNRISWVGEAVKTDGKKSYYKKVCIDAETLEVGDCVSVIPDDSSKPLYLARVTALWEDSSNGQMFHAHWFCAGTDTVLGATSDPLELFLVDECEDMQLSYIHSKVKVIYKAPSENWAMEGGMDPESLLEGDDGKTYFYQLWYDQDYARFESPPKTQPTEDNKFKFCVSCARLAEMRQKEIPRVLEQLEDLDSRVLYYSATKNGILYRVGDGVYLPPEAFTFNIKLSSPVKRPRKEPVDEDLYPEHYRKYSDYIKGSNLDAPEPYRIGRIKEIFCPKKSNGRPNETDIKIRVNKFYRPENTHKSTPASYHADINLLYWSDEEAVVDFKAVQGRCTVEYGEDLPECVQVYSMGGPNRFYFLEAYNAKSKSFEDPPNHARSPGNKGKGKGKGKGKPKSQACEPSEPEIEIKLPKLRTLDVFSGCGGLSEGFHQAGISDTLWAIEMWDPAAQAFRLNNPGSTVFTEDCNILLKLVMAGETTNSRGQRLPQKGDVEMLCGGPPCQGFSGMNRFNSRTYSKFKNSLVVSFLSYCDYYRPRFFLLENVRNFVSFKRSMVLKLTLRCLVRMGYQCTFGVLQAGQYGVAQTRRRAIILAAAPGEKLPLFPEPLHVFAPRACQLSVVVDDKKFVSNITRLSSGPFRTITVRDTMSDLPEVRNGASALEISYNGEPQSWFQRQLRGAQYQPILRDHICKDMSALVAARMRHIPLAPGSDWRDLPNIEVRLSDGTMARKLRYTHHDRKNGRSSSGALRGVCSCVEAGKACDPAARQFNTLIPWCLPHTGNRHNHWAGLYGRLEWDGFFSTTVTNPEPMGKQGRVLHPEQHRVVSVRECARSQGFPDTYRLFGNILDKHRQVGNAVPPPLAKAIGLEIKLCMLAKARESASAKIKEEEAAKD

| Substance | mMTase activity (DMB assay, incorporation of 3H-radiolabelled methyl groups) of Dnmt1 with an equimolar quantity of PCNA, against that of pDnmt1^S127/S143 and pDnmt1^S127 [fold] | mMTase activity (DMB assay, incorporation of 3H-radiolabelled methyl groups) of Dnmt1 with an equimolar quantity of UHRF1, against that of pDnmt1^S127/S143 and pDnmt1^S127 [fold] |
| --- | --- | --- |
| GST-PCNA (from UniProt P12004 1-261) (natural protein) | 5 | – |
| GST-UHRF1 (from UniProt Q96T88 1-793) (natural protein) | – | 4 |
